Where “and” joins values, the source holds several entries; their conditions need not be identical. Equal values may be shown once.
Experiments:
[1] = target: GST-KIAA1634 PDZ domain 5 (Homo sapiens (Human)), Q5TCQ9; test: G assay titration, PDZ 1 ug/ml
[2] = target: T1, GST-LIM Protein PDZ domain 1 (Homo sapiens (Human)), Q96HC4; test: G assay titration, PDZ 1 ug/ml
T1 chain: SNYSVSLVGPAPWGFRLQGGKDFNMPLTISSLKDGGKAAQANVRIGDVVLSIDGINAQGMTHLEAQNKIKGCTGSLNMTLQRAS

[3] = target: T2, GST-MINT1 PDZ domain 1 (Mus musculus (Mouse)), B2RUJ5; test: G assay titration, PDZ 5 ug/ml
T2 chain: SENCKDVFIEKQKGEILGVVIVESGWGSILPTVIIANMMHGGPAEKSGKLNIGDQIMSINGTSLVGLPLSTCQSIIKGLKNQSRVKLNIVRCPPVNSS

[4] = target: T3, GST-SYNTENIN PDZ domain 1 (Homo sapiens (Human)), O00560; test: G assay titration, PDZ 5 ug/ml
T3 chain: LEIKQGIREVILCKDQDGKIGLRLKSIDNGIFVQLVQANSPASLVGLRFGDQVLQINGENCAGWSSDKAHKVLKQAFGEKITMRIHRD

[5] = target: T4, GST-FLJ 10324 PDZ domain 1 [GST: P08515]; test: G assay titration, PDZ 1 ug/ml
T4 chain: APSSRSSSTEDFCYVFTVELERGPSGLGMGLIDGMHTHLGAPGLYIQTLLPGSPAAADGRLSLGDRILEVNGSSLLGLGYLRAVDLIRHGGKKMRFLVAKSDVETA

[6] = target: T5, GST-TIP-1 (Example 3) (human), O14907; test: ratio of G assay Kd values
T5 chain: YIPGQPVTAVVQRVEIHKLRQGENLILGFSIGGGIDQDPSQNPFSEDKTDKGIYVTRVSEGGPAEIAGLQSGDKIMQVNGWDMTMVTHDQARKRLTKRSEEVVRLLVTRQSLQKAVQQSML

[7] = target: T5, GST-TIP-1 (Example 3) (human), O14907; test: G assay titration, PDZ 0.1 ug/ml
[8] = target: GST-DLG1 PDZ domains 1, 2 (Homo sapiens), Q12959; test: G assay titration, PDZ 0.1 ug/ml
[9] = target: T6, GST-SITAC-18 PDZ domain 1 (Homo sapiens (Human)), Q9H190; test: G assay titration, PDZ 5 ug/ml
T6 chain: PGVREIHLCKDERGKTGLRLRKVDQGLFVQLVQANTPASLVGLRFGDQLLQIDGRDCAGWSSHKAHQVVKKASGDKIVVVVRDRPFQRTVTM

[10] = target: T7, GST-Outer Membrane PDZ domain 1 (Homo sapiens (Human)), P57105; test: G assay titration, PDZ 5 ug/ml
T7 chain: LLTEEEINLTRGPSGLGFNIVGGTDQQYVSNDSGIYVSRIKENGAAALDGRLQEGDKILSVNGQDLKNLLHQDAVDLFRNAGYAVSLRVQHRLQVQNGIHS

[11] = target: T8, GST-KIAA0807(S) PDZ domain 1 (Homo sapiens (Human)), Q6P0Q8; test: G assay titration, PDZ 5 ug/ml
T8 chain: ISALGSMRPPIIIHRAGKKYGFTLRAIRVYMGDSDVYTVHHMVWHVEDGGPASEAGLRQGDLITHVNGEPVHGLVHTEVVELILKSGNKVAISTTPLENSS

[12] = target: GST-BAI-1 Associated Protein PDZ domain 4 (Homo sapiens (Human)), Q96QZ7; test: G assay titration, PDZ 0.3 ug/ml
[13] = target: GST-BAI-1 Associated Protein PDZ domain 2 (Mus musculus (Mouse)), Q6RHR9; test: G assay titration, PDZ 0.3 ug/ml
[14] = target: T9, GST-DLG1 PDZ domain 2 (Homo sapiens), Q12959; test: G assay titration, PDZ 0.3 ug/ml
T9 chain: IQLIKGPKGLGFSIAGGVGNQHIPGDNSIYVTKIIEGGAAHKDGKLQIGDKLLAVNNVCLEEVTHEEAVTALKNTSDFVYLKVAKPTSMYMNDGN

GST-BAI-1 Associated Protein PDZ domain 2 (Mus musculus (Mouse)), Q6RHR9, sequence (Q6RHR9 455-558): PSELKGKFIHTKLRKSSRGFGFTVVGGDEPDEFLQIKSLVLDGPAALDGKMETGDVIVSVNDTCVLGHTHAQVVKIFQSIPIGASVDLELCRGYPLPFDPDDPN
GST-KIAA1634 PDZ domain 5 (Homo sapiens (Human)), Q5TCQ9, sequence (Q5TCQ9 other isoform, or with tags, fused parts or gaps): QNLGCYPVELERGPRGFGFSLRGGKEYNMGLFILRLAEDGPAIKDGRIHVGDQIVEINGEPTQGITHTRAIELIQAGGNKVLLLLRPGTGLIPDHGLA
GST-BAI-1 Associated Protein PDZ domain 4 (Homo sapiens (Human)), Q96QZ7, sequence (Q96QZ7 other isoform, or with tags, fused parts or gaps): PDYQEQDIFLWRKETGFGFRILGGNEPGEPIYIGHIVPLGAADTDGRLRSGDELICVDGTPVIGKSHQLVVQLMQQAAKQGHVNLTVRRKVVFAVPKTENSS

VPGALDYAAFSSALYGESDL (modifications not checked) [a-actinin 2]
Kd [1]: 2000 nM | Kd [2]: 2000 nM

KTMPAAMYRLLTAQEQPVYI (modifications not checked) [MINT-1]
Kd [3]: 2000 nM | Kd [4]: 800 nM | Kd [5]: 1000 nM

QISPGGLEPPSEKHFRETEV (modifications not checked) [TAX]
fold stronger binding than CD95 [6]: > 3000 fold | Kd [7]: 5 nM and 6 nM | maximum OD (450 nm) [7]: 3.3 OD and 2.1 OD | Kd [8]: 200 nM and 130 nM | maximum OD (450 nm) [8]: 1.6 OD and 3.4 OD

ILNSIQVMRAQMNQIQSVEV (modifications not checked) [ephrin B2]
Kd [9]: 4000 nM

VGTLLLERVIFPSVKIATLV (modifications not checked) [AdenoE4 typ9]
Kd [10]: 100 nM | Kd [11]: 200 nM | Kd [12]: 100 nM | Kd [13]: 20 nM | Kd [14]: 30 nM
